According to patent US20230331848A1 (BIOSION, published 2023):
Positions count from the first letter of the chain named.

T1: recombinant mouse PD-1-his protein (Cat#:50124-M08H, Sino Biological Inc) (mouse, UniProt Q02242 25-167)
T1 construct: Bought protein used in Biacore and indirect ELISA; not shown: his tag
T1 sequence (looked up): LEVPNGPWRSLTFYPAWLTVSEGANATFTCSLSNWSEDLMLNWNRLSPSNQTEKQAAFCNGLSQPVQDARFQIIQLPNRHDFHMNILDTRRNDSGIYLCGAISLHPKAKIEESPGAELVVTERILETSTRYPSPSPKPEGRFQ

T2: full length mouse PD-1 expressed on 293F-mouse PD-1 cells (mouse, UniProt Q02242 25-288)
T2 construct: also called cell surface mouse PD-1
T2 sequence: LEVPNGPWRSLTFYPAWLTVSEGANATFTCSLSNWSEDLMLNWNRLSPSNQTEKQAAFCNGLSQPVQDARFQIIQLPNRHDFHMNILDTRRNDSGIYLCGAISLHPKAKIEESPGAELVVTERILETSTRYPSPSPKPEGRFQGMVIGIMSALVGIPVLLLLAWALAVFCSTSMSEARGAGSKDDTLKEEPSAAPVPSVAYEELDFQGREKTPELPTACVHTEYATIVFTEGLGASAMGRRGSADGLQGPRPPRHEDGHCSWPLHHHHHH

B1: mouse anti-PD-1 monoclonal antibody E1A9C8A7 (antibody, V domains shown)
VH: QVQLQQSGAEVVRPGVSVRISCKGSGYTFSDYVMHWMKQSHGESLEWIGVISTYHIPAVYNQKFKGKATMTVDKSSSTVYLELARLTSEDSAIYYCAREVYGDSYYFDVWGAGTTVTVSS
VL: DVLMTQIPLSLPVSLGDQVSISCRSSQSIVHSNGNTYLEWYLQKPGQSPKLLIYKVSNRFSGVPDRFSGSGSGTDFTLKISRVEAEDLGVYYCFQGSHVPYTFGGGTKLEIK
notes: Hybridoma-derived mouse mAb purified on Protein A; also called Mouse E1A9C8A7
B2: mouse anti-PD-1 monoclonal antibody E2G4E10B7 (antibody, V domains shown)
VH: QVQLQQSGAELVRPGVSVKISCKGSGYTFTDYVMHWVRQSHAKSLEWIGVISTHFGDGVYNQKFKGKATMTVDKSSSTAYMELARLTSEDSAIYYCAREVYGDSWYFDVWGAGTTVTVSS
VL: B1 VL with I7T, V19A, I29L, N33D, V83L
notes: Hybridoma-derived mouse mAb; also called Mouse E2G4E10B7

Experiments:
[1] = target: T3, cynomolgus PD-1-his protein (Cat#:PD1-05223, Acro biosystems Inc.) (cynomolgus, UniProt B0LAJ3 25-170); experiment: indirect ELISA on coated cynomolgus PD-1-his
T3 construct: Bought protein used in Biacore and indirect ELISA; also called monkey PD-1; Cyno PD-1
T3 sequence (B0LAJ3 entry or part of it limits assumed): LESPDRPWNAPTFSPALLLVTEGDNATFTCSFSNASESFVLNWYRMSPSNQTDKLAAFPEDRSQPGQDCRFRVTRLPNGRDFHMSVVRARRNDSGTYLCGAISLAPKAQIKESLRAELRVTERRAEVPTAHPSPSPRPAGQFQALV

[2] = target: T1, recombinant mouse PD-1-his protein …; experiment: indirect ELISA on coated mouse PD-1-his; unit from the axis 'Con of mAb, nM.'
Method: Briefly, 96-well micro plates were coated with 100 μl 2 μg/ml mouse PD-1-his (Cat#:50124-M08H, Sino Biological Inc) or 2 μg,/ml cynomolgus PD-1-his (Cat#:PD1-05223, Acro biosystems Inc.) in carbonate/bicarbonate buffer (pH 9.6) for 2 hours at 37° C. Plates were washed once with wash buffer (PBST, PBS+0.05% Tween-20) and then blocked with 200 μl blocking buffer (5% w/v non-fatty milk in PBST) for 2 hours at 37° C. […] ELISA plates were washed 4 times and incubated with Peroxidase AffiniPure goat anti-mouse IgG, Fcγ Fragment Specific (1:5000 dilution in PBST buffer, Cat#:115-035-071, Jackson ImmunoResearch Laboratories, Inc., 100 μl/well) or Peroxidase AffiniPure F(ab′)₂ Fragment Goat Anti-Human IgG, Fcγ fragment specific (Cat#:109-036-098, Jackson ImmunoResearch, for the controls) for 40 minutes at 37° C. After a final wash, plates were incubated with 100 μl/well TMB (Cat#:TMB-S-002, innoreagents) at room temperature. The reaction was stopped 3-10 minutes later with 50 μl/well 1M H₂SO₄, and the absorbance was read on a microplate reader using dual wavelength mode with 450 nm for TMB and 630 nm as the reference wavelength. Then the OD (450-630) values were plotted against antibody concentrations. Data was analyzed using GraphPad Prism software and EC₅₀ values were reported.

[3] = target: T4, human PD-1-his protein prepared in-house (human, UniProt Q15116 25-167, biotin-labeled (sites not given)); experiment: competitive ELISA: biotin human PD-1-his + antibody on coated Pembrolizumab (competitor)
T4 construct: also called biotin labeled human PD-1-his
T4 sequence (Q15116 other isoform, or with tags, fused parts or gaps limits assumed): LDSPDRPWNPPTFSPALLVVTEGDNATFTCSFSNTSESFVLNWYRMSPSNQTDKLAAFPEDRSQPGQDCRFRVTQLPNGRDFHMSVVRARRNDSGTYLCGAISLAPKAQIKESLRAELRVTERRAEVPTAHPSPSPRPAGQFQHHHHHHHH
Method: ELISA plates were washed once with wash buffer (PBST, PBS+0.05% Tween-20) and then blocked with 200 μl/well blocking buffer (5% w/v non-fatty milk in PBST) for 2 hours at 37° C. […] After incubation at 37° C. for 40 minutes, plates were washed using wash buffer, added and incubated with 100 μl/well Peroxidase Streptavidin for 40 minutes at 37° C. Plates were washed again using wash buffer. Finally, TMB was added and the reaction was stopped using 1M H₂SO₄. The absorbance was read on a microplate reader using dual wavelength mode with 450 nm for TMB and 630 nm as the reference wavelength, and the OD (450-630) values were plotted against antibody concentrations. Data was analyzed using Graphpad Prism software and IC₅₀ values were reported.

[4] = target: T1, recombinant mouse PD-1-his protein …; experiment: SPR (Biacore T200), antibody captured, PD-1-his in flow, 1:1 fit
Description: The purified anti-PD-1 mouse monoclonal antibodies (mAbs) generated in Example 1 were characterized for binding affinities and binding kinetics by Biacore T200 system (GE healthcare, Pittsburgh, Pa., USA).
Briefly, Goat-Anti-Mouse IgG (Cat#: BR100838, GE healthcare, Mouse Antibody Capture Kit) was covalently linked to a CMS chip (carboxy methyl dextran coated chip, Cat#: BR100530, GE healthcare) via primary amines using a standard amine coupling kit (GE healthcare, Pittsburgh, Pa., USA) provided by Biacore. Un-reacted moieties on the biosensor surface were blocked with ethanolamine. A Protein G chip (Cat#:29-1793-15, GE healthcare) was used for the positive controls affinity determination. The anti-PD-1 antibodies of the disclosure and the two positive controls at the concentration of 2 μg/ml were respectively flowed onto the chip at a flow rate of 10 μl/min. Then, serially diluted recombinant human PD-1-his protein (Cat#:10377-H08H, Sino biological Inc.), cynomolgus PD-1-his protein (Cat#:PD1-05223, Acro biosystems Inc.) and recombinant mouse PD-1-his protein (Cat#:50124-M08H, Sino Biological Inc), 2-fold dilution in HBS-EP⁺ buffer (provided by Biacore) starting at 200 nM, were respecitvely flowed onto the chip at a flow rate of 30 μl/min. The antigen-antibody association kinetics was followed for 2 minutes and the dissociation kinetics was followed for 10 minutes. The association and dissociation curves were fit to a 1:1 Langmuir binding model using Biacore evaluation software.

[5] = target: T2, full length mouse PD-1 expressed on …; experiment: cell-based blocking FACS: 293F-mouse PD-1 cells incubated with antibody, then with mouse PD-L1-hFc (blocked ligand), detected with anti-human IgG Fc-PE; unit from the axis 'Con of mAb, nM.'
Method: Briefly, 293F-mouse PD-1 cells were harvested from cell culture flasks, washed twice and re-suspended in PBS containing 2% v/v Fetal Bovine Serum (FACS buffer). Then, 1×10⁵ cells per well in 96 well-plates were incubated in 100 μL of the anti-PD-1 antibodies or controls at various concentrations (starting at 80 nM with a 3-fold serial dilution) in FACS buffer for 40 minutes at 4° C. […] The plates were washed twice with FACS buffer, and then added and incubated for 40 minutes at 4° C. in dark with 100 μl/well R-Phycoerythrin AffiniPure Goat Anti-Human IgG, Fcγ fragment specific (1:1000 dilution in FACS buffer, Cat#:109-115-098, Jackson Immunoresearch). Cells were washed twice and re-suspended in FACS buffer. Fluorescence was measured using a Becton Dickinson FACS Canto II-HTS equipment. Data was analyzed using Graphpad Prism software and IC₅₀ values were reported.

| Binder | EC50 [1] [nM] | EC50 [2] [nM] | IC50 [3] [nM] | Kd [4] [nM] | koff [4] [s⁻¹] | kon [4] [M⁻¹ s⁻¹] | IC50 [5] [nM] |
| --- | --- | --- | --- | --- | --- | --- | --- |
| B1 | 0.07 | 0.185 | 0.48 | 150 | 0.031 | 207000 | 6.86 |
| B2 |  | 0.34 |  | 29.8 | 0.00553 | 186000 | 2.49 |
